Source: patent US20220119534A1 (DRAGONFLY THERAPEUTICS, published 2022)
Where “and” joins values, the source holds several entries; their conditions need not be identical. Identical values can stand only once.

B4: human CLEC12A expressed on cells (receptor)
chain: MSEEVTYADLQFQNSSEMEKIPEIGKFGEKAPPAPSHVWRPAALFLTLLCLLLLIGLGVLASMFHVTLKIEMKKMNKLQNISEELQRNISLQLMSNMNISNKIRNLSTTLQTIATKLCRELYSKEQEHKCKPCPRRWIWHKDSCYFLSDDVQTWQESKMACAAQNASLLKINNKNALEFIKSQSRSYDYWLGLSPEEDSTRGMRVDNIINSSAWVIRNAPDLNNMYCGYINRLYVQYYHCTYKKRMICEKMANPVQLGSTYFREA
notes: Transduced isogenic cells or endogenous expression on AML cells; also called RMA-hCLEC12A; Ba/F3-hCLEC12A

What was measured:
[1] = molecular target: T1, Human CLEC12A expressed on cells (Ba/F3-hCLEC12A, PL21, HL60) (human, UniProt Q5QGZ9 1-265); test: cell-based or functional assay
T1 sequence: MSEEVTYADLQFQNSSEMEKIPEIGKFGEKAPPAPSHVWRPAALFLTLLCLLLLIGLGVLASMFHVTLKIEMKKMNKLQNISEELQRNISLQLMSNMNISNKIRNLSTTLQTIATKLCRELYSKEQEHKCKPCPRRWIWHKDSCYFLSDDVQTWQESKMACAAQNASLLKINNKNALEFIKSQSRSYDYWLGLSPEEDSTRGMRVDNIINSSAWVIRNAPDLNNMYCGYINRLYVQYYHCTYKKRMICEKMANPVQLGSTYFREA

[2] = molecular target: T1, Human CLEC12A expressed on cells …; test: cell-based or functional assay; remark: listed apart in the source
[3] = molecular target: T1, Human CLEC12A expressed on cells …; test: cell-based or functional assay; remark: listed apart in the source
[4] = molecular target: T2, recombinant human CLEC12A-His (human, UniProt Q5QGZ9 65-265); test: SPR screening, semi-purified
T2 construct: also called hCLEC12A-His; hCLEC12A
T2 sequence: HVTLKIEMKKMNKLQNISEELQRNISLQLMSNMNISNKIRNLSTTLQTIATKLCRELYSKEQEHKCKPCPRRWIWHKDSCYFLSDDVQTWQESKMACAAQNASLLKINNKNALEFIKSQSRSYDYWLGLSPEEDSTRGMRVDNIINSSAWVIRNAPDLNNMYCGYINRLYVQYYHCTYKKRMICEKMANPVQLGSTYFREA
Method: Binding affinities of the 18 semi-purified TriNKETs for hCLEC12A were assessed by SPR in screening.

[5] = molecular target: B4; test: flow cytometry, hCLEC12A+ Ba/F3
[6] = molecular target: T2, recombinant human CLEC12A-His; test: SPR, CLEC12A binding
[7] = molecular target: B4; test: flow cytometry (gMFI) on CLEC12A+ PL-21 AML cells
[8] = molecular target: T2, recombinant human CLEC12A-His; test: SPR 37C
[9] = molecular target: T2, recombinant human CLEC12A-His; test: SPR 37C, average
[10] = molecular target: B4; test: flow cytometry on PL21 cells, surface-bound molecule after 2 h at 37 C relative to 20 min on ice
Method: Human cancer cell lines HL60 and PL21 expressing human CLEC12A were used to assess surface retention of CLEC12A-TriNKETs after incubation with cells. PL21 or HL60 cells in duplicate plates were incubated with TriNKETs or mAbs as indicated. The first plate was moved to 37° C. for two hours, whereas the second plate was incubated on ice for 20 minutes. After the respective incubation times, cells were washed. Surface bound TriNKET or mAb was detected using a fluorescent secondary antibody for flow cytometry.
100,000 cells were seeded per well into duplicate 96-well plates for FACS staining. Cells were washed with FACS buffer. Test articles were diluted to 40 nM and were added to each of the duplicate plates. The first plate was incubated on ice for 2 hours, while the second plate was moved to 37° C. for two hours. After the incubation, cells were washed with PBS and cells were incubated in a 1:2000 dilution of live/dead dye in PBS for 15 minutes, then washed with FACS buffer. Anti-human IgG-Fc secondary antibody was diluted into FACS buffer, and 50 μl was added per well for detection of the bound TriNKETs or mAbs. Cells were incubated for 20 minutes on ice, then washed with FACS buffer. 50 μl of fixation buffer was added to each well, and cells were incubated for 10 minutes at room temperature. […] Surface retention was then calculated as follows:

AB0300 = molecular target: T3, AB0300 (Homo sapiens (Human), UniProt P0DOX5 2-448 = IgG part; P0DOX7 1-214, L234A; L235A; P329G); test: flow cytometry on Ba/F3-hCLEC12A cells, fold over background
T3 construct: AB0237 with LALAPG in both Fc chains
Method: The cells were then incubated with a fluorophore conjugated anti-human IgG secondary antibody and were analyzed by flow cytometry. The mean fluorescence intensity (MFI) values were normalized to secondary antibody only controls to obtain fold over background (FOB) values.
100,000 cells were seeded per well into a 96-well plate for FACS staining. Cells were washed with PBS. Cells were incubated in a 1:2000 dilution of live/dead dye in PBS for 15 minutes, then washed with FACS buffer. TriNKETs or mAbs were diluted into FACS buffer, and 50 μl containing diluted TriNKET or mAb was added to cells. Cells were incubated on ice for 20 minutes. After the incubation, cells were washed with FACS buffer. Anti-human IgG-Fc secondary antibody was diluted into FACS buffer, and 50 μl was added per well for detection of the bound TriNKETs or mAbs. Cells were incubated for 20 minutes on ice, then washed with FACS buffer. 50 μl of fixation buffer was added to each well, and cells were incubated for 10 minutes at room temperature. Cells were washed with FACS buffer and resuspended in FACS buffer for analysis with BD FACS Celesta SN #H66034400085, or BD FACS Celesta SN #H66034400160. Cells of interest were identified using FSC vs. SSC plot, and an appropriately shaped gate was drawn around the cells. Within the gated cells, doublet cells were removed by viewing FSC-H vs FSC-A plot. Within the single cell population, live cells were gated. Within the live gate, the mean fluorescence intensity (MFI) of each sample and the secondary-only control was calculated. Fold-over-background (FOB) was calculated as the ratio of test article MFI over secondary-only background MFI. Data were fit to a four-parameter non-linear regression curve using GraphPad Prism 7.0.

[11] = molecular target: T2, recombinant human CLEC12A-His; test: flow cytometry of yeast-displayed scFv; x axis PE-A binding of Clec12a-his, y axis FITC-A scFv expression; CLEC12A-His concentration not printed on the sheet

B1: AB0192 TriNKET (bispecific antibody, human IgG1, kappa)
chain: EVQLVESGGGVVQPGGSLRLSCAASGFTFNAFGMHWVRQAPGKCLEWVAFISSGSTSIYYANTVKGRFTISRDNSKNTLYLQMNSLRAEDTAVYYCARDGYPTGGAMDYWGQGTSVTVSSGGGGSGGGGSGGGGSGGGGSDIQMTQSPSSLSASVGDRVTITCKASQDIYNYLSWFQQKPGKAPKPLIYRANILVSGVPSRFSGSGSGQDYTFTISSLQPEDIATYYCLQFDAFPFTFGCGTKLEIKGSDKTHTCPPCPAPELLGGPSVFLFPPKPKDTLMISRTPEVTCVVVDVSHEDPEVKFNWYVDGVEVHNAKTKPREEQYNSTYRVVSVLTVLHQDWLNGKEYKCKVSNKALPAPIEKTISKAKGQPREPRVYTLPPCRDELTKNQVSLTCLVKGFYPSDIAVEWESNGQPENNYKTTPPVLVSDGSFTLYSKLTVDKSRWQQGNVFSCSVMHEALHNHYTQKSLSLSPG
heavy: EVQLVESGGGLVKPGGSLRLSCAASGFTFSSYSMNWVRQAPGKGLEWVSSISSSSSYIYYADSVKGRFTISRDNAKNSLYLQMNSLRAEDTAVYYCARGAPIGAAAGWFDPWGQGTLVTVSSASTKGPSVFPLAPSSKSTSGGTAALGCLVKDYFPEPVTVSWNSGALTSGVHTFPAVLQSSGLYSLSSVVTVPSSSLGTQTYICNVNHKPSNTKVDKKVEPKSCDKTHTCPPCPAPELLGGPSVFLFPPKPKDTLMISRTPEVTCVVVDVSHEDPEVKFNWYVDGVEVHNAKTKPREEQYNSTYRVVSVLTVLHQDWLNGKEYKCKVSNKALPAPIEKTISKAKGQPREPQVCTLPPSRDELTENQVSLTCLVKGFYPSDIAVEWESNGQPENNYKTTPPVLDSDGSFFLYSWLTVDKSRWQQGNVFSCSVMHEALHNHYTQKSLSLSPG
light: DIQMTQSPSSVSASVGDRVTITCRASQGISSWLAWYQQKPGKAPKLLIYAASSLQSGVPSRFSGSGSGTDFTLTISSLQPEDFATYYCQQGVSFPRTFGGGTKVEIKRTVAAPSVFIFPPSDEQLKSGTASVVCLLNNFYPREAKVQWKVDNALQSGNSQESVTEQDSKDSTYSLSSTLTLSKADYEKHKVYACEVTHQGLSSPVTKSFNRGEC
EC50, rested NK cells lysis of HL60 cells (mean of four donors) [1]: 0.3 nM
% Max, ADCP activity of M0 macrophages against PL21 cells [2]: 15%
EC50, ADCP activity of M0 macrophages against PL21 cells [2]: 0.03 nM
EC50, rested NK cell lysis of PL21 cells (mean of six donors) [3]: 0.61 nM

B2: F3'-1295 TriNKET (other)
chain: QLQLQESGPGLVKPSETLSLTCTVSGFSLTNYGLHWIRQPPGKCLEWIGVIWSGGKTDYNPSLKSRVTISKDTSKNQFSLKLSSVQAADTAVYYCAKYDYDDSLDYWGQGTLVTVSSGGGGSGGGGSGGGGSGGGGSDIQMTQSPSSLSASVGDRVTITCHASQNINFWLSWYQQKPGKIPKLLIYEASNLHTGVPSRFSGSGSGTRFTLTISSLQPEDIATYYCQQSHSYPLTFGCGTKLEIKGSDKTHTCPPCPAPELLGGPSVFLFPPKPKDTLMISRTPEVTCVVVDVSHEDPEVKFNWYVDGVEVHNAKTKPREEQYNSTYRVVSVLTVLHQDWLNGKEYKCKVSNKALPAPIEKTISKAKGQPREPRVYTLPPCRDELTKNQVSLTCLVKGFYPSDIAVEWESNGQPENNYKTTPPVLVSDGSFTLYSKLTVDKSRWQQGNVFSCSVMHEALHNHYTQKSLSLSPG
heavy: EVQLVESGGGLVKPGGSLRLSCAASGFTFSSYSMNWVRQAPGKGLEWVSSISSSSSYIYYADSVKGRFTISRDNAKNSLYLQMNSLRAEDTAVYYCARGAPIGAAAGWFDPWGQGTLVTVSSASTKGPSVFPLAPSSKSTSGGTAALGCLVKDYFPEPVTVSWNSGALTSGVHTFPAVLQSSGLYSLSSVVTVPSSSLGTQTYICNVNHKPSNTKVDKKVEPKSCDKTHTCPPCPAPELLGGPSVFLFPPKPKDTLMISRTPEVTCVVVDVSHEDPEVKFNWYVDGVEVHNAKTKPREEQYNSTYRVVSVLTVLHQDWLNGKEYKCKVSNKALPAPIEKTISKAKGQPREPQVCTLPPSRDELTENQVSLTCLVKGFYPSDIAVEWESNGQPENNYKTTPPVLDSDGSFFLYSWLTVDKSRWQQGNVFSCSVMHEALHNHYTQKSLSLSPG
light: DIQMTQSPSSVSASVGDRVTITCRASQGISSWLAWYQQKPGKAPKLLIYAASSLQSGVPSRFSGSGSGTDFTLTISSLQPEDFATYYCQQGVSFPRTFGGGTKVEIKRTVAAPSVFIFPPSDEQLKSGTASVVCLLNNFYPREAKVQWKVDNALQSGNSQESVTEQDSKDSTYSLSSTLTLSKADYEKHKVYACEVTHQGLSSPVTKSFNRGEC
Kd [4]: 2.94 nM
koff [4]: 0.00153 s⁻¹
kon [4]: 520000 M⁻¹ s⁻¹
EC50 [5]: 26.1 nM
Max MFI [5]: 48000 MFI
Kd [6]: 1.2 nM
EC50 [7]: 11.7 nM
Kd [8]: 1.43 nM and 1.42 nM and 1.44 nM
koff [8]: 0.000587 s⁻¹ and 0.000589 s⁻¹ and 0.000605 s⁻¹ and 0.000596 s⁻¹
kon [8]: 411000 M⁻¹ s⁻¹ and 415000 M⁻¹ s⁻¹ and 419000 M⁻¹ s⁻¹ and 416000 M⁻¹ s⁻¹
Kd [9]: 1.43 nM
koff [9]: 0.000594 s⁻¹
kon [9]: 415000 M⁻¹ s⁻¹

B3: AB0147 TriNKET (other)
chain: QLQLQESGPGLVKPSETLSLTCTVSGFSLTNYGLHWIRQPPGKCLEWIGVILSGGWTDYNPSLKSRVTISKDTSKNQFSLKLSSVQAADTAVYYCAKGDYGDALDYWGQGTLVTVSSGGGGSGGGGSGGGGSGGGGSDIQMTQSPSSLSASVGDRVTITCHASQNINFWLSWYQQKPGKAPKLLIYEASNLHTGVPSRFSGSGSGTRFTLTISSLQPEDIATYYCQQSHSYPLTFGCGTKLEIKGSDKTHTCPPCPAPELLGGPSVFLFPPKPKDTLMISRTPEVTCVVVDVSHEDPEVKFNWYVDGVEVHNAKTKPREEQYNSTYRVVSVLTVLHQDWLNGKEYKCKVSNKALPAPIEKTISKAKGQPREPRVYTLPPCRDELTKNQVSLTCLVKGFYPSDIAVEWESNGQPENNYKTTPPVLVSDGSFTLYSKLTVDKSRWQQGNVFSCSVMHEALHNHYTQKSLSLSPG
heavy: EVQLVESGGGLVKPGGSLRLSCAASGFTFSSYSMNWVRQAPGKGLEWVSSISSSSSYIYYADSVKGRFTISRDNAKNSLYLQMNSLRAEDTAVYYCARGAPIGAAAGWFDPWGQGTLVTVSSASTKGPSVFPLAPSSKSTSGGTAALGCLVKDYFPEPVTVSWNSGALTSGVHTFPAVLQSSGLYSLSSVVTVPSSSLGTQTYICNVNHKPSNTKVDKKVEPKSCDKTHTCPPCPAPELLGGPSVFLFPPKPKDTLMISRTPEVTCVVVDVSHEDPEVKFNWYVDGVEVHNAKTKPREEQYNSTYRVVSVLTVLHQDWLNGKEYKCKVSNKALPAPIEKTISKAKGQPREPQVCTLPPSRDELTENQVSLTCLVKGFYPSDIAVEWESNGQPENNYKTTPPVLDSDGSFFLYSWLTVDKSRWQQGNVFSCSVMHEALHNHYTQKSLSLSPG
light: DIQMTQSPSSVSASVGDRVTITCRASQGISSWLAWYQQKPGKAPKLLIYAASSLQSGVPSRFSGSGSGTDFTLTISSLQPEDFATYYCQQGVSFPRTFGGGTKVEIKRTVAAPSVFIFPPSDEQLKSGTASVVCLLNNFYPREAKVQWKVDNALQSGNSQESVTEQDSKDSTYSLSSTLTLSKADYEKHKVYACEVTHQGLSSPVTKSFNRGEC
binding result [10]: binds

B4
binding result (AB0300): binds

B5: scFv-1602 displayed on yeast (scFv)
scFv: QLQLQESGPGLVKPSETLSLTCTVSGFSLTNYGLHWIRQPPGKCLEWIGVIWSGGKTDYNPSLKSRVTISKDTSKNQFSLKLSSVQAADTAVYYCAKYDYDDSLDYWGQGTLVTVSSGGGGSGGGGSGGGGSGGGGSDIQMTQSPSSLSASVGDRVTITCHASQNINFWLSWYQQKPGKAPKLLIYEASNLHTGVPSRFSGSGSGTRFTLTISSLQPEDIATYYCQQSHSYPLTFGCGTKLEIK
binding result [11]: binds
